From the nanobody polyreactivity screen of Harvey et al. (2022)

Experiment: yeast display, Sf9 membrane polyspecificity reagent, FACS + sequencing; frameworks hold sequencing errors
Summary of the method: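 Genes from sorted yeast were amplified by colony PCR, read by MiSeq 2 × 250 sequencing and filtered on CDR length. These cells carried a synthetic nanobody library in Saccharomyces cerevisiae BJ5465 and were sorted by FACS into low and high (top ~1%) gates on anti-HA and streptavidin fluorescence. Polyreactivity is labelled according to the gate of origin.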
In the case of “QVQLVESGGGLVQAGGSLRLSCAASGSTFTQYVMGWYRQAPGKERELVAAISDSGSTYYADSVKGRFTISRDNAKNTVYLQMNSLKPEDTAVYYCNADDVDFYYGYGYLEYDYWGQGTQVTVSS”, the “polyreactivity (PSR sort gate)” value is reported as “low polyreactivity”.
In the case of “QVQLVESGGGLVQAGGSLRLSCAASGSTFTRNAMGWYRQAPGKERELVAAISSSGGRTYYADSVKGRFTISRDNAKNTVYLQMNSLKPEDTAVYYCAAGIRTSAGYDYWGQGTQVTVSS”, the “polyreactivity (PSR sort gate)” value is reported as “high polyreactivity”.
In the case of “QVQLVESGGGLVQAGGSLRLSCAASGSTFTRNAMGWYRQAPGKERELVAVISSRGGRTYYADSVKGRFTISRDNAKNTVYLQMNSLKPEDTAVYYCAARTWVLYTWRSYYEYYYWGQGTQVTVSS”, the “polyreactivity (PSR sort gate)” value is reported as “high polyreactivity”.
With “QVQLVESGGGLVQAGGSLRLSCAASGSTFTRYAMGWYRQAPGKERELVAAITRSGGGTYYADSVKGRFTSSRDNAKNTVYLQLNSLKPEDTAVYYCAKDIVFYGSPGYGYWGQGTQVTVSS” the “polyreactivity (PSR sort gate)” value was “high polyreactivity”.
In the case of “QVQLVESGGGLVQAGGSLRLSCAASGSTFTRYDMGGYRHAPGKERELVAAISKSGGSTYYADSVKGRFTISRDNAKNTVYLQMNSLKPEDTAVYYCARGSTKYHIYSLDYWGQGTQVTVSS”, the “polyreactivity (PSR sort gate)” value is reported as “low polyreactivity”.
With “QVQLVESGGGLVQAGGSLRLSCAASGSTFTRYGMGWYRQAPGKERELVAAITTSGSSTYYADSVKGRFTISRDNAKNTVYLQMNSLKPEDTAVYYCAADWSSWGFDYWGQGTQVTVSS” the “polyreactivity (PSR sort gate)” value was “low polyreactivity”.
With “QVQLVESGGGLVQAGGSLRLSCAASGSTFTSNTRWYRQAPGKERELVAAISNRGGGTYYADSVKGRFTISRDNAKNTVYLQMNSLKPEDTAVYYCNAAGYARKTAYYYWGQGTQVTVSS” the “polyreactivity (PSR sort gate)” value was “high polyreactivity”.
For “QVQLVESGGGLVQAGGSLRLSCAASGSTFTSYAMGWYIQAPGKERELVAAIRYRGDGTYYADSVKGRFTISRDNAKNTVYLQMNSLKPEDTAVYYCAADTTLQAFIRYRPIGSYDSWGQGTQVTVSS”, the “polyreactivity (PSR sort gate)” value was “low polyreactivity”.
For “QVQLVESGGGLVQAGGSLRLSCAASGSTFTSYAMGWYRQAPGKERELVASISRSGGSTYYADSVKGRFTISRDNAKNTVYLQMNSLKPEDTAVYYCAVRSVTWHGYWGQGTQVTVSS”, the “polyreactivity (PSR sort gate)” value was “high polyreactivity”.
For “QVQLVESGGGLVQAGGSLRLSCAASGSTFTTNAMGWYRQAPGKERELVAAISWSGTTTYYADSVKGRFTISRDNAKNTVYLQMNSLKPEDTAVYYCAAQVVSGTVAYLDFGYWGQGTQVTVSS”, the “polyreactivity (PSR sort gate)” value was “low polyreactivity”.
For “QVQLVESGGGLVQAGGSLRLSCAASGSTFTTNVMGWYRQAPGKERELVAAISWSSGSTYYADSVKGRFTISRDNAKNTVYLQMNSLKPEDTAVYYCAARLVIFYPYSRYYYWGQGTQVTVSS”, the “polyreactivity (PSR sort gate)” value was “high polyreactivity”.
For “QVQLVESGGGLVQAGGSLRLSCAASGSTFTTYAMGWYRQAPGKEREFVASIRWRGGHTYYADSVKGRFTISRDNAKNTVYLQMNSLKPEDTAVYFCARRVDYISSKYGYWGQGTQVTVSS”, the “polyreactivity (PSR sort gate)” value was “high polyreactivity”.
In the case of “QVQLVESGGGLVQAGGSLRLSCAASGSTFTVNAMGLYRQAPGKERELVAAINWSGGSTYYADSVKGRFTISRDHAKNTVYLQMNSLKPEDTAVYYCNKDREPYGYWSFDYWGQGTQVTLSS”, the “polyreactivity (PSR sort gate)” value is reported as “low polyreactivity”.
With “QVQLVESGGGLVQAGGSLRLSCAASGSTFTVNAMGWYRQAPGKERELVAVIRKSGTSTYYADSVKGRFSISRDNAKNTVYLQMNSLKPEDTAVYYCAAGGPSTLDDYWGQGTQVTVSS” the “polyreactivity (PSR sort gate)” value was “low polyreactivity”.
With “QVQLVESGGGLVQAGGSLRLSCAASGSTFTWYAMGWYRQAPGKERELVAAISRGGSTNYADSVKGRFTISRDNAKNTVYLQMNSLKPEDTAVYYCAAESYWRDDYWGQGTQVTVSS” the “polyreactivity (PSR sort gate)” value was “low polyreactivity”.
For “QVQLVESGGGLVQAGGSLRLSCAASGSTFTWYAMGWYRQAPGKERELVADISYGGGSTYYADSVKGRFTISRDNAKNTVYLQMNSLKPEDTAVYYCAADYRWYQRGNPMDYWGQGTQVNVSS”, the “polyreactivity (PSR sort gate)” value was “low polyreactivity”.
For “QVQLVESGGGLVQAGGSLRLSCAASGSTFTWYAMGWYRQAPGKERELVADISYGGGSTYYADSVKGRFTISRDNAKNTVYLQMNSLKPEDTAVYYCAVDDGFAYSYDWTYRYAEYYYWGQGTQVTVSS”, the “polyreactivity (PSR sort gate)” value was “low polyreactivity”.
For “QVQLVESGGGLVQAGGSLRLSCAASGSTFTWYTMGWYRQAPGKERELVAAISSSGGSTYYADSVKGRFTISRDNAKNTVYLQMNSLKPEDTAVYYCARRFPSPLYTRYDYWGQGTQVTVSS”, the “polyreactivity (PSR sort gate)” value was “high polyreactivity”.
In the case of “QVQLVESGGGLVQAGGSLRLSCAASGSTFTYNAMGWYRQAPGKERELVASISSGTTTYYADSVKGRFTISRDNAKNTVYLQMNCLKPEDTAVYYCAVDSWSRVQGWLAHYYDYWGQGTQVTVSS”, the “polyreactivity (PSR sort gate)” value is reported as “low polyreactivity”.
For “QVQLVESGGGLVQAGGSLRLSCAASGSTFTYNTMGWYRQAPGKERELVAAISWGGGGTYYADSVKGRFTISRDNAKNSVYLQMNSLKRVDTAVYYCKADPWWDYGTFDYWGQGTQVTVSS”, the “polyreactivity (PSR sort gate)” value was “low polyreactivity”.
For “QVQLVESGGGLVQAGGSLRLSCAASGSTFTYNTMGWYRQAPGKERELVAGITKSGGSTYYADSVKGRFTISRDTAKNTVYLQMNSLKPEDTAVYYCATSTSRRYGSRHNYWGQGTQVTVSS”, the “polyreactivity (PSR sort gate)” value was “high polyreactivity”.
For “QVQLVESGGGLVQAGGSLRLSCAASGSTFTYYAMGWYRQAPGKEREFVATIRRSGGRTNYADSVKGRFTISRDNAKNTVYLQMNSLKPEDTAVYYCNARYTNVRGFDYWGQGTQVTVSS”, the “polyreactivity (PSR sort gate)” value was “high polyreactivity”.
With “QVQLVESGGGLVQAGGSLRLSCAASGSTFTYYAMGWYRQAPGKEREFVATITYSGGSTYYADSVKGRFTISRDNAKNTVYLQMNSLKPEDTAVYYCAARVGRPSLVAAKYDYWGQGTQVTVSS” the “polyreactivity (PSR sort gate)” value was “high polyreactivity”.
For “QVQLVESGGGLVQAGGSLRLSCAASGSTFTYYAMGWYRQAPGKERELVAAISRRGGSTYYADSVKGRFTISRDNAKNTVYLQMNSLKPEDTAVYYCAAASHGRFYYWGQGTQVTVSS”, the “polyreactivity (PSR sort gate)” value was “high polyreactivity”.
In the case of “QVQLVESGGGLVQAGGSLRLSCAASGSTFTYYAMGWYRQAPGKERELVAAITGGGSTNYADSVKGRFTISRDNAKNTVYLQMNSLKPEDTAVYYCAARTARYYYGWRYTGEYGYWGQGTQVTVSS”, the “polyreactivity (PSR sort gate)” value is reported as “high polyreactivity”.
For “QVQLVESGGGLVQAGGSLRLSCAASGSTFTYYAMGWYRQAPGKERELVAAITRRGGSTYYADSVKGRFTISRDNAKNTVYLQMNSLIPEDTAVYYCAKSTQIRAYIWDPYRISTYGYWGQGTQVTVSS”, the “polyreactivity (PSR sort gate)” value was “high polyreactivity”.
For “QVQLVESGGGLVQAGGSLRLSCAASGSTFTYYAMGWYRQAPGKERELVASISSTTGSTYYADSVKGRFTISRDNAKNTVYLQMNSLKPEDTAVYYCAAERVYPWYRYYYWGQGTQVTVSS”, the “polyreactivity (PSR sort gate)” value was “low polyreactivity”.
In the case of “QVQLVESGGGLVQAGGSLRLSCAASGSTFVANAMGWYRQAPGKERELVAAISFNRGGNTYYADSVKGRFTISRDNAKNTVYLQMNSLKPEDTAVYYCAARNSYGNWRYYYWGQGTQVTVSS”, the “polyreactivity (PSR sort gate)” value is reported as “high polyreactivity”.
In the case of “QVQLVESGGGLVQAGGSLRLSCAASGSTFVDNDMGWYRQAPGKERELVAAAITARGGSTYYADSVKGRFTISRDNAKNTVYLQMNSLKPEDTAVYYCAAGRPGELDYWGQGTQVTVSS”, the “polyreactivity (PSR sort gate)” value is reported as “low polyreactivity”.
In the case of “QVQLVESGGGLVQAGGSLRLSCAASGSTFVDYAMGWYRQAPGKERELVAAINSDGGGTYYADSVKGRFTISRDNAKNTVYLQMNSLKPEDTAVYYCNVEYEDYYAQRYGYDYWGQGTQVTVSS”, the “polyreactivity (PSR sort gate)” value is reported as “low polyreactivity”.
In the case of “QVQLVESGGGLVQAGGSLRLSCAASGSTFVDYAMGWYRQAPGKERELVAGINGSGGSTYYADSVKGRFTISRDNAKNTVYLQMNSLKPEDTAVYYCAKDGSNRLALPAWDYNYWGQGTQVTVSS”, the “polyreactivity (PSR sort gate)” value is reported as “low polyreactivity”.
In the case of “QVQLVESGGGLVQAGGSLRLSCAASGSTFVFYVMVWYRQAPGKERQLVAAITGSTTSTYYAVSVKGRFTISRDNAKNTVYLQMNSLKPEDTAVYYCAAEVLRGRGFGYWGQGTQVCVSS”, the “polyreactivity (PSR sort gate)” value is reported as “high polyreactivity”.
With “QVQLVESGGGLVQAGGSLRLSCAASGSTFVGNAMGWYRQAPVKERELVATISNSGGHTFYADSVKGRFTISRDNAKNTVYLQMNSLKPEDTAVYYCAASTSGAIRRDGYWGQGTQVTVSS” the “polyreactivity (PSR sort gate)” value was “low polyreactivity”.
In the case of “QVQLVESGGGLVQAGGSLRLSCAASGSTFVGYAMGWYRQAPGKERELVASITRRGGSTYYADSVKGRFTISRDNAKNTVYLQMNSLKPEDTAVYYCATPLYKTATWRAYEYWGQGTQVTVSS”, the “polyreactivity (PSR sort gate)” value is reported as “high polyreactivity”.
With “QVQLVESGGGLVQAGGSLRLSCAASGSTFVGYAMGWYSPAPGKERELVADIDSIGGSTYYADSVKGRFTISRDYANNTVYLQINSLKPEDTAVFYCAARRFDTALVLYDYWGPGTQVTVSS” the “polyreactivity (PSR sort gate)” value was “low polyreactivity”.
In the case of “QVQLVESGGGLVQAGGSLRLSCAASGSTFVGYAMVWYRQAPGKERELVAAISYSGGSTYYADSVKGRFTISRDNAKNTVYLQMNSLKPEDTAVYYCAAEWSRHYYSGPRYDSWGQGSQVTVSS”, the “polyreactivity (PSR sort gate)” value is reported as “low polyreactivity”.
With “QVQLVESGGGLVQAGGSLRLSCAASGSTFVGYTMGWYRQAPGKERELVASITSDGSTNYADSVKGRFTISRDNAKNTVYLQMNSLKREDTAVYYCNADWSSLYVGEFDYWGQGTQVTVSS” the “polyreactivity (PSR sort gate)” value was “low polyreactivity”.
In the case of “QVQLVESGGGLVQAGGSLRLSCAASGSTFVGYVMGWYRQAPGKERELVAAITRSGTSTYYADSVKGRFTISRDNAKNTVYLQMNSLKPEDTAVYYCARRYVSSDYYYWGQGTQVTVSS”, the “polyreactivity (PSR sort gate)” value is reported as “low polyreactivity”.
In the case of “QVQLVESGGGLVQAGGSLRLSCAASGSTFVHYAMGWYRQAPGKERELVAAINDGGSTHYADSVKGRFTISRDNAKNTVYLQMHSLKPEDTAVYYCAAEYVWYRYPDYWGAYDYWGQGTQVTVSS”, the “polyreactivity (PSR sort gate)” value is reported as “low polyreactivity”.
With “QVQLVESGGGLVQAGGSLRLSCAASGSTFVKNTMGWYRQAPGKERELVAAIRSSGGSTYYADSVKGRFTISRDNAKNTVYLQMNSLKPEDTAVYYCAAGRGPEGTDDSWGQGTQVTVSS” the “polyreactivity (PSR sort gate)” value was “high polyreactivity”.
For “QVQLVESGGGLVQAGGSLRLSCAASGSTFVKYAMGWYRQAPGKERELVAAINRSGASTYYADSVKGRFTISRDNAKNTVYLQMNSLKPEDTAVYYCAARFSWVGYYWGQGTQVTVSS”, the “polyreactivity (PSR sort gate)” value was “high polyreactivity”.
For “QVQLVESGGGLVQAGGSLRLSCAASGSTFVKYAMGWYRQAPGKERELVAAITDGGGGTFYADSVKGRFTISRDNGLNTVYLQMNSLNPEDTAVFYCNVGVSSAEDFDYWGQGTQVTVSS”, the “polyreactivity (PSR sort gate)” value was “low polyreactivity”.
With “QVQLVESGGGLVQAGGSLRLSCAASGSTFVKYVMGWYRQAPGKERELVAAISRSSVRTSYADSVKGRFTISRDNAKNTVYLQMNSLKPEDTAVYYCAAEYQYGGTTFDYWGQGTQVTVSS” the “polyreactivity (PSR sort gate)” value was “high polyreactivity”.
